Measured values taken from the RNAGym collection of RNA variant scans (doi:10.7554/elife.80360).

B1: CPEB3 Ribozyme (parent)
chain: GGGGGCCACAGCAGAAGCGUUCACGUCGCGGCCCCUGUCAGAUUCUGGUGAAUCUGCGAAUUCUGCUGU

Variants of: B1
Assay: self-cleavage, relative activity (ratio to wild type); higher = more cleavage; co-transcriptional

**Q.** With GGGGGCCACAGUAUAAGCGUUCACGUCGCGGCCCCUGUCAGAUUCUGGUGAAUCUGCGAAUUCUGCUGU as the variant, how does the self-cleavage read?
**A.** 0.345

**Q.** With GGGGGCCACAGUAGAAGCGUUCACGUCGCGGCCCCUGUCAGAUUCGGGUGAAUCUGCGAAUUCUGCUGU as the variant, how does the self-cleavage read?
**A.** 1

**Q.** With GGGGGCCACAGUAGAAGCGUUCACGUCGCGGCCCCUGUCAGAUUCUGGUGAAUCUGCGAAUUCUGCCGU as the variant, how does the self-cleavage read?
**A.** 0.978

**Q.** For GGGGGCCACAGUAGAAGCGUUCACGUCGCGGCACCUGUCAGAUUCUGGUGAAUCUGCGAAUUCUGCUGU, which self-cleavage is on record?
**A.** 0.924

**Q.** For GGGGGCCACAGUAGAAGCGUUCACGUCGCGGCGCCUGUCAGAUUCUGGUGAAUCUGCGAAUUCUGCUGU, which self-cleavage is on record?
**A.** 0.656

**Q.** With GGGGGCCACAGUAGAAGCGUCCACGUCGCGGCCCCUGUCAGAUUCUGGUGAAUCUGCGAAUUCUGCUGU as the variant, how does the self-cleavage read?
**A.** 0.9

**Q.** For GGGGGCCACAGUAGAAGCGUUCACGUCGCGGCCCCUGUCAGAUUGUGGUGAAUCUGCGAAUUCUGCUGU, which self-cleavage is on record?
**A.** 0.98

**Q.** For GGGGGCCACAGUAGAAGCGUUCACGUCGCGGCCCCUGUCAGAUUUUGGUGAAUCUGCGAAUUCUGCUGU, which self-cleavage is on record?
**A.** 1.01

**Q.** Which self-cleavage does the source give for GGGGGCCACAGUAGAAGCGUUCACGUCGCGGCCCCUGUCUGAUUCUGGUGAAUCUGCGAAUUCUGCUGU here?
**A.** 0.643

**Q.** Which self-cleavage does the source give for GGGGGCCACAGUAGAAGCGUUCAUGUCGCGGCCCCUGUCAGAUUCUGGUGAAUCUGCGAAUUCUGCUGU here?
**A.** 0.805

**Q.** With GGGGGCCACAGUAGAAGCGUUCAAGUCGCGGCCCCUGUCAGAUUCUGGUGAAUCUGCGAAUUCUGCUGU as the variant, how does the self-cleavage read?
**A.** 0.713

**Q.** With GGGGGCCACAGUAGAAGCGUUCAGGUCGCGGCCCCUGUCAGAUUCUGGUGAAUCUGCGAAUUCUGCUGU as the variant, how does the self-cleavage read?
**A.** 0.316

**Q.** With GGGGGCCACAGUAGAAGCGUUCACGUCGAGGCCCCUGUCAGAUUCUGGUGAAUCUGCGAAUUCUGCUGU as the variant, how does the self-cleavage read?
**A.** 0.451

**Q.** Which self-cleavage does the source give for GGGGGCCACAGUAGAAGCGUUCACGUCGCGGCCCCUGUCAGAUGCUGGUGAAUCUGCGAAUUCUGCUGU here?
**A.** 0.866

**Q.** With GGGGGCCACAGUAGAAGCGUUCACGUCGCGGCCCCUGUCAGAUACUGGUGAAUCUGCGAAUUCUGCUGU as the variant, how does the self-cleavage read?
**A.** 0.954

**Q.** For GGGGGCCACAGUAGAAGCUUUCACGUCGCGGCCCCUGUCAGAUUCUGGUGAAUCUGCGAAUUCUGCUGU, which self-cleavage is on record?
**A.** 0.339

**Q.** For GGGGGCCACAGUAGAAGCGUUCACGUGGCGGCCCCUGUCAGAUUCUGGUGAAUCUGCGAAUUCUGCUGU, which self-cleavage is on record?
**A.** 0.174

**Q.** Which self-cleavage does the source give for GGGGGCCACAGUAGAAGCGUUCACGUCGCGGCCCCUGUCAGAUUCUGGUGAAUCUGCGAAUUCUGGUGU here?
**A.** 0.556

**Q.** With GGGGGCCACAGUAGAAGCGUUCACGUCGCGGCCCCUGUCAGAUUCUGGUGAAUCUGCGAAUUCUGUUGU as the variant, how does the self-cleavage read?
**A.** 0.798

**Q.** With GGGGGCCACAGCCGAAGCGUUCACGUCGGGGCCCCUGUCAGAUUCUGGUGAAUCUGCGAAUUCUGCUGU as the variant, how does the self-cleavage read?
**A.** 0.141

**Q.** Which self-cleavage does the source give for GGGGGCCACAGUAGAAGCGUUCACGUCGCGGCCCCUGUCAGAUUCUGGUGAAUCUUCGAAUUCUGCUGU here?
**A.** 0.802

**Q.** With GGGGGCCACAGUAGAAGCGUUCACGUCGCGGCCCCUGUCAGAUUCUGGUGAAUCUCCGAAUUCUGCUGU as the variant, how does the self-cleavage read?
**A.** 0.554

**Q.** Which self-cleavage does the source give for GGGGGCCACAGCCGAAGCGUUCACGUGGCGGCCCCUGUCAGAUUCUGGUGAAUCUGCGAAUUCUGCUGU here?
**A.** 0.048

**Q.** For GGGGGCCACAGUAGAAGCGUUCACGUCGCGGCCCCUGUCAGAUUCUGGUGAAUCUGCCAAUUCUGCUGU, which self-cleavage is on record?
**A.** 1.01

**Q.** For GGGGGCCACAGGAGAAGCGUUCACGUCGCGGCCCCUGUCAGAUUCUGGUGAAUCUGCGAAUUCGGCUGU, which self-cleavage is on record?
**A.** 0.395

**Q.** Which self-cleavage does the source give for GGGGGCCACAGGAGAAGCGUUCACGUCGCGGCCCCUGUCAGAUUCUGGUGAAUCUGCGAAUUCCGCUGU here?
**A.** 0.566

**Q.** For GGGGGCCACAGGAGAAGCGUUCACGUCGCGGCCCCUGUCAGAUUCUGGUGAAUCUGCGAAUUCUGCUGC, which self-cleavage is on record?
**A.** 1.06

**Q.** With GGGGGCCACAGUAGAAGCGUUCACGUCGCGGCCCCUGUCAGAUUCUGGUGAAUCUGCGAACUCUGCUGU as the variant, how does the self-cleavage read?
**A.** 0.579

**Q.** For GGGGGCCACAGUAGAAGCGUUCACGUCGCGGCCCCUGUCAGAUUCUGGUGAAUCUGCGAAGUCUGCUGU, which self-cleavage is on record?
**A.** 0.644

**Q.** For GGGGGCCACAGUAGAAGCGUUCACGUCGCGGCCCCUGUCAGAUUCUGGUGAAUCUGCGAAUUCUGCUGG, which self-cleavage is on record?
**A.** 1.05

**Q.** For GGGGGCCACAGUAGAAGCGUUCACGUCGCGGCCCCUGUCAGAUUCUGGUGAAUCUGCGAAUUCUGCUGA, which self-cleavage is on record?
**A.** 1.02

**Q.** Which self-cleavage does the source give for GGGGGCCACAGCCGAAGCGUUCACGUCGCGGCCCCUGUCAGAUUCUGGUGAAUCUGCGAAUUCUGCUGU here?
**A.** 0.913

**Q.** With GGGGGCCACAGUAGAAGCGUUCACGUCGCGGCCCCUGUCAGAUUCUGCUGAAUCUGCGAAUUCUGCUGU as the variant, how does the self-cleavage read?
**A.** 0.972

**Q.** For GGGGGCCACAGUAGAAGCGUUCACGUCGCGGCCCCUGUCAGAUUCUGAUGAAUCUGCGAAUUCUGCUGU, which self-cleavage is on record?
**A.** 0.963

**Q.** For GGGGGCCACAGUAGAAGCGUUCACGUCGCGGCCCCUGUCAGAUUCUGGUGAAUUUGCGAAUUCUGCUGU, which self-cleavage is on record?
**A.** 0.968

**Q.** Which self-cleavage does the source give for GGGGGCCACAGUAGAAGCGUUCACGUCGCGGCCCAUGUCAGAUUCUGGUGAAUCUGCGAAUUCUGCUGU here?
**A.** 0.275

**Q.** For GGGGGCCACAGUAGAAGCGUUCACGUCGCGGCCCGUGUCAGAUUCUGGUGAAUCUGCGAAUUCUGCUGU, which self-cleavage is on record?
**A.** 0.45

**Q.** With GGGGGCCACAGUAGAAGCGUUCACGUCGCGGCCCUUGUCAGAUUCUGGUGAAUCUGCGAAUUCUGCUGU as the variant, how does the self-cleavage read?
**A.** 0.947

**Q.** Which self-cleavage does the source give for GGGGGCCACAGUAGAAGCGUUCACGUCGCGGCCCCUGACAGAUUCUGGUGAAUCUGCGAAUUCUGCUGU here?
**A.** 0.88
